# Data from publication PMC7525811 (Molecular Biology of the Cell, 2020).
# Like-named read-outs stand apart in the source and are kept apart here. No end group written: not given here. MBP = not defined here
# Legend:
# [1] = biological target: full-length human CRM1(E571K) (human) (UniProt O14980); assay: differential photobleaching
# CRM1(E571K) = CRM1(E571K) (Homo sapiens, UniProt O14980, E571K); assay type: binding; details: for Kd,E571K/Kd,WT: ratio of Kds from differential photobleaching assays
# [2] = biological target: full-length human CRM1 (WT) (Homo sapiens, UniProt O14980); assay type: binding; details: from photobleaching Kds
# [3] = biological target: full-length human CRM1(E571K) (human) (UniProt O14980); assay: fluorescence polarisation
# HEK 293 cells = assay: Immunostaining and confocal microscopy of endogenous RPS2 with and without LMB; assay type: cell-based, human; details: anti-RPS2 immunostaining, presence vs absence of LMB
# [4] = biological target: T1, full-length human CRM1 (wild type) (human, UniProt O14980 1-1071); assay: differential photobleaching
# [5] = biological target: T2, full-length human CRM1(E571K) (human, UniProt O14980 1-1071, E571K); assay: differential photobleaching
# [6] = biological target: T1, full-length human CRM1 (wild type); assay: differential photobleaching; remark: listed apart in the source
# [7] = biological target: T1, full-length human CRM1 (wild type)
# [8] = biological target: T2, full-length human CRM1(E571K)
# T2 sequence (O14980 whole entry E571K): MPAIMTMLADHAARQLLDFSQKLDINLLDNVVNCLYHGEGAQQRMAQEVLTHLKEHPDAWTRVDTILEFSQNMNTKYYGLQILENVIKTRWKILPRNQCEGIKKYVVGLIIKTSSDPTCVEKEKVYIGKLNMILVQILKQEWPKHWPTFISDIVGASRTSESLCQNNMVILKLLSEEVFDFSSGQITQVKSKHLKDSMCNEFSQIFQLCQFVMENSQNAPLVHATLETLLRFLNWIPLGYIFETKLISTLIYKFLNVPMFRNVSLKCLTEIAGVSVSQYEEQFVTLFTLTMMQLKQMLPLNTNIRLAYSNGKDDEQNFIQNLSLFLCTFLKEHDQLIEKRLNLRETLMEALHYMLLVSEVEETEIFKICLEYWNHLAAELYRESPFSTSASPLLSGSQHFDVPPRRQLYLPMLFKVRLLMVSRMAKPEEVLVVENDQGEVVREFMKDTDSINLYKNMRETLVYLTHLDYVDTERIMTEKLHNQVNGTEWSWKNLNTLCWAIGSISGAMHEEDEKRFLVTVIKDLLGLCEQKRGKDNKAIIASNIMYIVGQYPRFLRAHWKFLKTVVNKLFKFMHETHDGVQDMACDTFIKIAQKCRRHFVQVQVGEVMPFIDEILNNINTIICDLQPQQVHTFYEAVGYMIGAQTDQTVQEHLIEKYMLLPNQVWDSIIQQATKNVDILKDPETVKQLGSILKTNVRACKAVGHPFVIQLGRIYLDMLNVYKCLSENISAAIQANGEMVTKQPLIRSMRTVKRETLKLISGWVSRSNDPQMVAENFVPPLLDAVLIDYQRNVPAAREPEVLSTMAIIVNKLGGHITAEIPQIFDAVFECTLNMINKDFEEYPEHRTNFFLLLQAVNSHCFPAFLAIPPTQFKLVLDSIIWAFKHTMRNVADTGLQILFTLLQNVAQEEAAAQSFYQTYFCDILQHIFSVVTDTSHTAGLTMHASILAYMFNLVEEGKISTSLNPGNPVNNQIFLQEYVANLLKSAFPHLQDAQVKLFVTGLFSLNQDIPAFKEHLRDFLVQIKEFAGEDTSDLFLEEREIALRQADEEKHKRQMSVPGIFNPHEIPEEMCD
# Sequence of CRM1(E571K) (O14980 whole entry E571K, other chains not shown): as the sequence (O14980 whole entry E571K) above
# T1 sequence (O14980 whole entry): as the sequence (O14980 whole entry E571K) above, with K571E counted along it
# Sequence of full-length human CRM1(E571K) (human) (O14980 whole entry E571K): as the sequence (O14980 whole entry E571K) above
# Sequence of full-length human CRM1 (WT) (O14980 whole entry, other chains not shown): as the sequence (O14980 whole entry E571K) above, with K571E counted along it
Molecule,"Kd,E571K/Kd,WT (CRM1(E571K))",Kd [5] [µM],other results
MBP-FMRP1b^NES (peptide),,,Kd [1]: 9 µM
LQLPPLERLTLDC [HIV Rev^NES],2.3,,
YERVVSPGIDLSGLTLQ [Smad4^NES],2.8,,
Mek1^NES(E41A) ({MBP}-TNLEALQKKLEELALDEQ; reading uncertain),,,tighter binding to WT CRM1 than the WT Mek1^NES [2]: 14 fold
LKEVDQLRALERLQID [FMRP1b^NES],3.0,,
EQMVKELQEIRLEPQ [Iκβα^NES],0.95,,
SVPEVEALLARLRAL [mDia2^NES],0.88,,
MEELSQALASSFSVSQDLNS [Snupn1^NES],1.8,,
RELDELMASLSDFKFMA [Paxillin^NES],4.6,,weaker binding to CRM1(E571K) than to WT CRM1 (CRM1(E571K); from photobleaching Kds): 4–10 fold
MBP-RPS2^NES (putative NES of 40S ribosomal protein S2) (peptide),,,fold weaker than to WT CRM1 [3]: 16 fold
SVEEVEAGLKGLKVDQQVK [eIF4E-transporter (4E-T^NES)],10,,
TNLEALQKKLEELELDEQ [Mek1^NES],0.071,,tighter (stronger) binding to CRM1(E571K) than to WT CRM1 (CRM1(E571K); from photobleaching Kds): 14 fold
SSLQELVQQFEALPGDLV [X11L2^NES],0.87,,
SLVLLPFDDLKISG [Iκβε^NES],3.3,,
RTFDMHSLESSIDIMR [Cpeb4^NES],3.2,,
NFEILMKLKESLELMELVP [P73^NES],0.75,,
Paxillin^NES(K277A) ({MBP}-RELDELMASLSDFAFMA; reading uncertain),2.1,,
REELWKKLEELKLKK [PP2A B56α^NES],8.6,,weaker binding to CRM1(E571K) than to WT CRM1 (CRM1(E571K); from photobleaching Kds): 4–10 fold
RSFEMTEFNQALEEIKG [hRio2^NES],0.79,,

Molecule,"Kd,E571K/Kd,WT (CRM1(E571K))",Kd [5] [µM],other results
CCC(=C/[C@H](C)C/C=C/C(C)=C/[C@@H](C)C(=O)[C@@H](C)[C@H](O)[C@@H](C)C/C(C)=C/C(=O)O)/C=C/[C@@H]1OC(=O)C=C[C@@H]1C [leptomycin B],,,subcellular localization of endogenous RPS2 upon CRM1 inhibition (HEK 293 cells): not affected
REELWKKLEELKLKK [MBP-PP2A B56α^NES],,38,Kd [4]: 4.4 µM
NFEILMKLKESLELMELVP [MBP-P73^NES],,1.5,
RTFDMHSLESSIDIMR [MBP-Cpeb4^NES],,1.9,
SSLQELVQQFEALPGDLV [MBP-X11L2^NES],,1.3,
TNLEALQKKLEELELDEQ [MBP-Mek1^NES],,0.005,binding result [6]: binds
TNLEALQKKLEELALDEQ [MBP-Mek1^NES(E41A)],,,Kd [7]: 0.005 µM; Kd [8]: 0.006 µM
SVEEVEAGLKGLKVDQQVK [MBP-eIF4E-transporter NES (4E-T^NES)],,14,Kd [4]: 1.4 µM
MEELSQALASSFSVSQDLNS [MBP-Snupn1^NES],,21,
YERVVSPGIDLSGLTLQ [MBP-Smad4^NES],,13,binding result [6]: binds
RELDELMASLSDFKFMA [MBP-Paxillin^NES],,3.1,
PLPVLGLGGLRISS [MBP-Dusp6^NES],,14,
{MBP}-SLVLLPFDDLKISG (reading uncertain) [MBP-Iκβε^NES],,12,Kd [4]: 3.6 µM
LQLPPLERLTLDC [MBP-HIV Rev^NES],,4.1,
SVPEVEALLARLRAL [MBP-mDia2^NES],,1.5,
{MBP}-EQMVKELQEIRLEPQ (reading uncertain) [MBP-Iκβα^NES],,21,Kd [4]: 22 µM
NSNELALKLAGLDIDE [MBP-PKI^NESDE],,,fold tighter than to WT CRM1 [8]: 3 fold
RSFEMTEFNQALEEIKG [MBP-hRio2^NES],,1.9,
